Measured values published in patent US20140017242A1, “ANTI-BRADYKININ B2 RECEPTOR (BKB2R) MONOCLONAL ANTIBODY” (Diamedica, Inc., priority 2010, published 2014).

Tests used:
[1] = tested on: ZDF fa/fa rats; assay: 21-day ZDF fa/fa study: oral glucose tolerance test (blood glucose, plasma insulin); assay type: in vivo, rat; conditions: day 21
Procedure: (§1) Animals. Male ZDF fa/fa rats were obtained from CRL (Kingston, N.Y.). Upon arrival, rats were seven weeks of age. The rats were housed individually per cage in a room with a photo cycle of 12 hours of light and 12 hours of dark and an ambient temperature of 70-72° F. and fed on regular rodent diet and water ad libitum. At the age of eleven weeks, rats were divided into six groups (Table 5) of eight rats per group based on fasting blood glucose levels. A sub-group of four rats per group was maintained in parallel to the main groups and was dosed similarly for twenty-one days for a hyperinsulinemic-euglycemic clamp study. […]
An oral glucose tolerance test (OGTT) was performed on Day 0, 7, 14 and 21 for each group of the study. Plasma samples were collected at each time point during OGTT to also measure insulin levels. Body weight, food and water intake were measured twice a week. Blood pressure and heart rates were monitored on Day 0, 7, 14 and 21 using a non-invasive tail cuff method (with five readings per rat taken and then averaged). Fasting serum samples were collected on Day 0, 7, 14 and 21 before OGTT for determination of triglyceride and total cholesterol level. Urine samples were collected on Day 7 and 14 for the determination of glycosuria. Glycated (Glycosylated) hemoglobin (HbA1c) was measured at the end of the study. Assay kits for these studies were as presented in Table 6, and were used according to the suppliers' instructions.
OGTTs were performed on Day 0, 7, 14 and Day 21. Rats were fasted overnight and fasted blood glucose levels were measured (t=0 min), and then each rat was given a single 1.5 ml dose of glucose solution (2 g/kg body weight of D-(+)-glucose (G7528, Sigma) solubilized in deionized water) administered by oral gavage. […] At each time point of an OGGT approximately 50-60 μl of blood were collected and processed for plasma to measure insulin levels.
Plasma Collection. On days 0, 7, 14 and 21 during an OGTT test, blood samples were collected from the rats at each time point (0, 15, 30, 60, 90 and 120 minutes) into tubes containing lithium heparin (BD Biosciences, USA) by tail nip and kept on ice. The samples were then centrifuged at 4° C. for plasma separation and the plasma supernatants were transferred into 0.5 ml Eppendorf™ tubes by pipette and stored at −80° C. for the analysis of insulin levels.

[2] = tested on: ZDF fa/fa rats; assay: 21-day ZDF fa/fa study: tail cuff blood pressure and heart rate; assay type: in vivo, rat
Procedure: as §1
An oral glucose tolerance test (OGTT) was performed on Day 0, 7, 14 and 21 for each group of the study. […] Body weight, food and water intake were measured twice a week. Blood pressure and heart rates were monitored on Day 0, 7, 14 and 21 using a non-invasive tail cuff method (with five readings per rat taken and then averaged). […] Glycated (Glycosylated) hemoglobin (HbA1c) was measured at the end of the study. […]
Blood pressure measurements were performed using a blood pressure monitor and data acquisition software. […] The VPR sensor utilized a differential pressure transducer to non-invasively measure the blood volume in the tail, and determined systolic blood pressure, diastolic blood pressure, and heart rate. […]

B1: 5F12G1: murine monoclonal anti-BKB2R antibody (IgG2b,κ), VH comprising SEQ ID NO:1, VL comprising SEQ ID NO:2 (antibody, listed as Mus musculus, V domains shown)
VH: EVKLEESGGGLVQPGGSMKLSCVVSGFTFSDYWMSWVRHSPEMGLEWVAEIRLKSDNYATHYAESVKGRFTISRDDSKSRLYLQINSLRGEDTGIYYCTRDYYAMEYWGQGTSVTVSS
VL: DVVMTQTPLSLPVSLGDQASISCRSSQTIVHSNGKTYLEWYLQKPGQSPKLLIYKVSNRFSGVPDRFSGSGSGTEFTLKISRVETEDLGVYYCFQASHVPYTFGGGTKLEIK
In the case of B1, the “blood glucose level at the start of the OGTT” value ([1]; 0.008 mg/kg s.c. every 3 days) is reported as 190 ± 40 mg/dL, the fasting insulin level ([1]; 0.008 mg/kg s.c. every 3 days) is reported as 14 ± 3 ng/mL and the “insulin level at 15 minutes of the OGTT” value ([1]; 0.008 mg/kg s.c. every 3 days) is reported as 24 ± 6 ng/mL. The “blood glucose level at 30 minutes of the OGTT (peak)” value (from here on “blood glucose level at 30 minutes”) ([1]; 0.04 mg/kg s.c. every 3 days) was 355 mg/dL, the “blood glucose level at the start of the OGTT” value ([1]; 0.04 mg/kg s.c. every 3 days) was 163 ± 40 mg/dL and the fasting insulin level ([1]; 0.04 mg/kg s.c. every 3 days) was 12 ± 3 ng/mL. The “insulin level at 15 minutes of the OGTT” value ([1]; 0.04 mg/kg s.c. every 3 days) was 26 ± 3 ng/mL, the “AUC of blood glucose during OGTT” value ([1]; 0.2 mg/kg s.c. every 3 days) was 33241.13 ± 3910.62 mg/dL (min) and the “blood glucose level at 30 minutes” value ([1]; 0.2 mg/kg s.c. every 3 days) was 312 mg/dL. For the same molecule, the “blood glucose level at the start of the OGTT” value ([1]; 0.2 mg/kg s.c. every 3 days) was 150 ± 20 mg/dL, the fasting insulin level ([1]; 0.2 mg/kg s.c. every 3 days) was 17 ± 5 ng/mL and the “insulin level at 15 minutes of the OGTT” value ([1]; 0.2 mg/kg s.c. every 3 days) was 30 ± 7 ng/mL. For the same molecule, the “blood glucose level at 30 minutes” value ([1]; 0.008 s.c. every 3 days) was 400 mg/dL, the “increase in systolic blood pressure from baseline” value ([2]; 0.2 mg/kg s.c. every 3 days (highest dose), Day 0 to Day 21) was 0.12+/−4.4 mm Hg and the “systolic, diastolic blood pressure and heart rate measurements relative to the control group MG2b-57” value ([2]; all 5F12G1 doses, day 21) was “below the control group”.
